± gives the standard deviation of the averaged measurements.
test system: ATP; assay: switch fluorescence ratio, 500 uM ATP over buffer (Cy3 cluster intensity, sum of 5 cycles each) (fold (ratio)); higher = stronger signal-on switching upon ATP binding; sequences stand for … in TCGTCGGCAGCGTCAGATGTGTATAAGAGACAGTTTTTTTTTTTTTTTTTTTTTTTTT…TC; settings: aptamer strand: ATP DNA aptamer (quencher-CACCTGGGGGAGTATTGCGGAGGAAGG + anchor), 100 nM annealed; ATP concentration: 500 uM
Outline: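 The fluorescence ratio divides summed target-cycle Cy3 intensity by summed buffer-cycle Cy3 intensity for each cluster and is averaged per switch-domain sequence. Cy3-labelled switching-strand clusters on a modified Illumina MiSeq flow-cell were annealed to 100 nM quencher-labelled ATP aptamer, then imaged in selection buffer and again after 15 min with 500 uM ATP at 22 °C. Five such cycles were run, with NaOH stripping and re-annealing between them, and clusters outside 100-1000 RFU were excluded.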
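Further: ATP exposure 15 min at 22 °C before imaging.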

| Sequence | switch fluorescence ratio |
| --- | --- |
| TTAGGCTGGG | 1.02 ± 0.013 |
| TCAAGCGGGG | 1.06 ± 0.09 |
| TGTGTTTATA | 1.013 ± 0.0095 |
| GGTATGGGAC | 1 ± 0.022 |
| TCGGACACAT | 1.07 ± 0.03 |
| GGGGGACGGT | 1.02 ± 0.017 |
| CGTTCACCGG | 0.959 ± 0.049 |
| GATCGCTCGG | 1.01 ± 0.02 |
| TTTGAGGACA | 1.01 ± 0.012 |
| AGAGGATTTG | 1.02 ± 0.022 |
| TAAGATGGG | 1.01 ± 0.019 |
| TGTTTATTCC | 1.11 ± 0.087 |
| AGCTTAAATT | 0.987 ± 0.018 |
| GACTAAATGC | 1.8 ± 0.3 |
| CGGGTTATGT | 0.992 ± 0.044 |
| CAGAGTGGCA | 1.02 ± 0.027 |
| TTGGGACGTC | 1.02 ± 0.048 |
| GGTCTAAATT | 1 ± 0.039 |
| GGGCACTTGT | 1.01 ± 0.04 |
| GGGAAGATTG | 0.966 ± 0.052 |
| CGTCATTTAT | 1 ± 0.06 |
| ATACCGTGAG | 1.05 ± 0.011 |
| TGAACGAGGG | 1.01 ± 0.022 |

| Sequence | switch fluorescence ratio |
| --- | --- |
| TGGGAAGGCA | 1 ± 0.025 |
| AAGCAGCCGG | 0.99 ± 0.046 |
| GGCCGTATGT | 1.01 ± 0.011 |
| TAGGTGCCGT | 1 ± 0.076 |
| CGAACTTGTG | 1.01 ± 0.015 |
| TCGGACATGG | 1.015 ± 0.0082 |
| AGGGGTGCCT | 0.993 ± 0.013 |
| GCGTTAGTTG | 1.01 ± 0.057 |
| ACAGGTAGGT | 1 ± 0.055 |
| GTAAGGATGT | 0.988 ± 0.038 |
| AAGCCGTGTG | 0.988 ± 0.042 |
| TGGGTGGGGT | 1.01 ± 0.026 |
| TTGGGTTGGG | 0.987 ± 0.018 |
| GGATGGGTCG | 1.02 ± 0.083 |
| CAACAGGGGT | 1.14 ± 0.23 |
| GAACGGGAAT | 1.022 ± 0.00076 |
| AGTTTTTTTT | 0.997 ± 0.028 |
| AAGGTTGAAC | 0.979 ± 0.011 |
| AGAGAACCCT | 1.08 ± 0.048 |
| AGCGGGTTCG | 1 ± 0.054 |
| ATGCATCGAG | 1.01 ± 0.03 |
| ACAGGGTTTC | 0.985 ± 0.015 |
| ACCAATCGGG | 0.9917 ± 0.002 |

| Sequence | switch fluorescence ratio |
| --- | --- |
| TCATGGCCAG | 1.04 ± 0.078 |
| TTACTGCATT | 1.11 ± 0.014 |
| TCGGGAGTTG | 0.952 ± 0.024 |
| GGTCCCATCG | 0.985 ± 0.019 |
| TTAAATGTGT | 1.02 ± 0.018 |
| AAGGCGAGGT | 0.994 ± 0.022 |
| AAAGATAATG | 1.003 ± 0.0091 |
| CGCGCGGAAC | 0.98 ± 0.019 |
| CGATGTAGTA | 1.016 ± 0.0058 |
| ATATGGAGAT | 0.98 ± 0.017 |
| AGTTCAACCT | 1.65 ± 0.19 |
| ACTTAAGAAA | 1.16 ± 0.13 |
| TTATTTTTA | 0.9699 ± 0.0017 |
| GTGGGATATA | 0.995 ± 0.049 |
| CGGGCTCCGC | 1.21 ± 0.099 |
| CAGCGCTGGA | 0.996 ± 0.033 |
| AGTTCTCAGT | 0.997 ± 0.018 |
| TCGTGGGGTA | 0.9761 ± 0.007 |
| GTGTCCCTC | 1.01 ± 0.04 |
| TTAAGTGGAA | 0.997 ± 0.049 |
| GGGGAGGGAT | 0.996 ± 0.017 |
| CGTATGCCGA | 0.961 ± 0.016 |
| CAGGATCTAG | 1 ± 0.024 |

| Sequence | switch fluorescence ratio |
| --- | --- |
| GGGGCAGAAA | 1.26 ± 0.45 |
| TTACGACGAC | 2.21 ± 0.096 |
| GATAGCTTAG | 0.9935 ± 0.0071 |
| GAAGTAGGTG | 1.02 ± 0.012 |
| AGTATGAGTA | 1.015 ± 0.0088 |
| GGTTTAAGTT | 0.99 ± 0.03 |
| GTTGTTAGGA | 0.961 ± 0.02 |
| TTAGGGGCAA | 1.04 ± 0.073 |
| TCCTGGCTGT | 1.09 ± 0.027 |
| GGATGAGGTT | 0.982 ± 0.044 |
| GGCACGAGGA | 1.04 ± 0.017 |
| ACCACGGTGT | 2.12 ± 0.075 |
| TGGGGGCTGT | 0.998 ± 0.016 |
| ATCGCGGCCG | 1.02 ± 0.04 |
| ATGAGTTGCG | 0.977 ± 0.029 |
| TACTATTTTA | 1 ± 0.016 |
| TTCTGTGGCG | 1 ± 0.069 |
| TAGTACTTTA | 1.046 ± 0.0071 |
| TGTGCTCGGA | 1.04 ± 0.1 |
| TTTTTGGGGC | 1.03 ± 0.072 |
| GTATCTTGGG | 1.04 ± 0.042 |
| TGACTACGCG | 1.18 ± 0.02 |
| CTCGTAATTG | 1.09 ± 0.052 |

| Sequence | switch fluorescence ratio |
| --- | --- |
| GGTTCATTTT | 1.01 ± 0.025 |
| TTTGCTTTCT | 1.02 ± 0.023 |
| GGGATTAAAG | 1.02 ± 0.017 |
| ACACGTGCTA | 1.01 ± 0.024 |
| TATAGTGGCC | 0.998 ± 0.022 |
| GAGGGGTGTA | 0.9896 ± 0.0085 |
| AACGGTGTTT | 1.03 ± 0.045 |
| TAGATCGGGG | 1.008 ± 0.01 |
| GGGGATACAG | 0.995 ± 0.012 |
| TTTATGGGAA | 1.01 ± 0.026 |
| CAGGGAAAAT | 0.982 ± 0.012 |
| GCCTACGGCC | 1.004 ± 0.0021 |
| CGAGATCAAG | 0.971 ± 0.013 |
| ACACAAGGTC | 1.03 ± 0.041 |
| TGGGGAATAG | 1.04 ± 0.057 |
| GAATCCGTTC | 1.07 ± 0.026 |
| AATAAATTTA | 1 ± 0.016 |
| ATTCGTGGG | 1.01 ± 0.017 |
| TTTATGTCGG | 1.004 ± 0.0091 |
| GTTGGAAGCA | 1.1 ± 0.18 |
| TGAGGAGGGC | 1.02 ± 0.08 |
| ATGTTAGATT | 0.996 ± 0.029 |
| AGGTGTAAAT | 1.003 ± 0.0016 |

| Sequence | switch fluorescence ratio |
| --- | --- |
| GAACAAGGTG | 1.14 ± 0.22 |
| AAATGGTCGG | 0.974 ± 0.017 |
| CAACGAGTGG | 1.012 ± 0.0028 |
| ATTAAGGCAA | 1.1 ± 0.014 |
| TATGTTAGGC | 1.018 ± 0.01 |
| GATTTAAATA | 0.98 ± 0.018 |
| ATGAATTTTT | 0.992 ± 0.042 |
| GAATGGCTGG | 0.962 ± 0.0099 |
| GAATAAAATG | 1.04 ± 0.013 |
| TAATTTGGCT | 1.01 ± 0.035 |
| GAGGATATAG | 1.03 ± 0.061 |
| TTATATCGGT | 0.971 ± 0.011 |
| TCTTAGATGA | 0.9765 ± 0.003 |
| TAGTGTGGGC | 0.999 ± 0.017 |
| GGGTATACCG | 1.018 ± 0.0017 |
| AAAATTTTTT | 1.07 ± 0.19 |
| CAGCTAGGTT | 1.31 ± 0.39 |
| AATGCTGACA | 1 ± 0.016 |
| CAGGAGTCGT | 1 ± 0.038 |
| CGGGACAAGT | 0.982 ± 0.041 |
| CTAATTGTTT | 0.973 ± 0.025 |
| ATCGGGTGGG | 1.001 ± 0.0075 |
| GGTTAAGGCG | 0.9569 ± 0.0079 |

| Sequence | switch fluorescence ratio |
| --- | --- |
| TTTAACATAT | 1.022 ± 0.004 |
| CGAGGTGGCG | 0.958 ± 0.06 |
| GGGAGGGGTA | 1 ± 0.029 |
| ATCAAGGGGA | 0.972 ± 0.028 |
| CCGTACGGGG | 1.029 ± 0.0055 |
| GAGGGTTTTT | 1 ± 0.021 |
| ATAATGGCTT | 0.988 ± 0.025 |
| TTTTTGCGTC | 1.03 ± 0.059 |
| TTGCTCAAGC | 0.999 ± 0.068 |
| TTTGAAACCA | 1.01 ± 0.024 |
| AAAGTGGTGT | 0.9845 ± 0.0018 |
| CGGGTTACGA | 1.02 ± 0.028 |
| AAAAATGCGG | 1.01 ± 0.077 |
| CAGAAGGGTT | 0.997 ± 0.038 |
| AATGTATGTT | 1.032 ± 0.0074 |
| CGGTGGCTTC | 1.003 ± 0.0026 |
| TTTAGATTTG | 1.024 ± 0.0048 |
| TTTGGTCCTT | 1.029 ± 0.0088 |
| ATATGTGGGT | 0.989 ± 0.038 |

Reference: the supplement of paper PMC10126150
